One assay deals with CT26 tumors. Description: CT26 syngeneic mouse model of colorectal cancer, tumor volume and weight. Conditions: day 28, BALB/c mice bearing CT26 tumors, Ab11 10 mg/kg, irinotecan 100 mg/kg IP, hydrochloride. The format is in vivo.
In the next assay the test system is cyno GHR. In words: STAT5 phosphorylation in vitro assay, cyno GHR-transfected HEK293 cells. In kind it is cell-based, cynomolgus monkey. Conditions: for fluorescent signal ave (phospho-STAT5): Table 8, cyno GHR-transfected cells. The protocol: This Example illustrates the effect of GHR antibodies in an in vitro STAT5 phosphorylation assay. In this Example, the ability of GHR antibodies to block GHR downstream signaling was tested in vitro using human GHR overexpressing cells and cyno GHR overexpressing cells.
Chain of cyno GHR (as listed by the source): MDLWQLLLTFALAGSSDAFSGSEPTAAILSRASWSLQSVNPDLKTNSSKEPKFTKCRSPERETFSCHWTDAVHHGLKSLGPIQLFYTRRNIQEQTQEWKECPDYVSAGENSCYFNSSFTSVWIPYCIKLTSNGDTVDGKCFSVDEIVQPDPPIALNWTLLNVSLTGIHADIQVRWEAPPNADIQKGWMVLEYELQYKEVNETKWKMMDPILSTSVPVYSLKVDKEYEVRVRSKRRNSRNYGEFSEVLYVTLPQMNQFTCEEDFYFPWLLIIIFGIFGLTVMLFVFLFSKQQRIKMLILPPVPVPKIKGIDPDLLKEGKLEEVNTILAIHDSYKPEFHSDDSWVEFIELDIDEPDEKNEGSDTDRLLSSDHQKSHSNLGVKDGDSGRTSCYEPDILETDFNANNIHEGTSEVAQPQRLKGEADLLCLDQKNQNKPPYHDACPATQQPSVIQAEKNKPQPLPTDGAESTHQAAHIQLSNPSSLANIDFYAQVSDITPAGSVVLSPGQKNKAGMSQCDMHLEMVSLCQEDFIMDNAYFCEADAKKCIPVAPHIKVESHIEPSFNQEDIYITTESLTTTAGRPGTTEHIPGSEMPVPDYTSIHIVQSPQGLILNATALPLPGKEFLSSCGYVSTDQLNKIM
GHR antagonist antibody Ab13 was tested for its ability to block STAT5 in an in vitro assay. HEK293 cells were transiently transfected with either DNA encoding full-length human GHR (SEQ ID NO: 140) or DNA encoding full-length cyno GHR (SEQ ID NO: 141). Cells were cultured in freestyle media for approximately 60 hours before testing. Cells were washed with DPBS (Dulbecco's Phosphate-Buffered Saline) and resuspended in Freestyle media, then counted using a hemocytometer. 1×10^6 cells were seeded per well in 6-well plates in 2 mls of Freestyle media. Cells were incubated for 2 hours at 37° C., then treated with 5, 50, or 500 nM Ab13 antibody in media. Cells were incubated at 37° C. with gentle mixing for 5 min with antibodies. 4.5 nM GH (Genotropin) was then added to all but control wells. Cells were incubated with GH at 37° C. with gentle mixing for 10 minutes.
Following incubation with GH, 2 ml of ice cold DPBS with 1× protease inhibitor cocktail (Roche) and 1 mM sodium orthovanadate (BioLabs) were added to each well and the plates were placed on ice. Cells were transferred to 5 ml tubes and spun down to create a cell pellet and the wash buffer was aspirated, leaving the cell pellet.
Reagents from Millipore™ MILLIPLEX® MAP Cell Signaling Buffer and Detection Kit (cat. #48-602) were used to lyse and treat the cell pellets. Millipore lysis buffer with 1× protease inhibitor cocktail and 1 mM sodium orthovanadate was added to each pellet at a volume of 200 ul/pellet. Cells were vortexed and incubated for 15 minutes at room temp with occasional vortexing. Millipore Assay buffer 2 with 1× protease inhibitor cocktail and 1 mM sodium orthovanadate was then added to the lysates at 300 ul/well.
Millipore™ MILLIPLEX® MAP Phospho STAT5N8 (Tyr694/699) MAPmate™ beads (Cat. #46-641) were resuspended in Assay Buffer 2 (from Millipore™ kit cat. #48-602) and loaded on a 96-well filter plate (provided in kit) at 25 ul/well, 25 ul/well of sample lysate was added to the wells and the beads and samples were incubated overnight at 4′C with shaking in the dark.
The liquid was then aspirated using a vacuum manifold and the remaining beads were washed using Millipore™ kit wash buffer. 25 ul Millipore™ kit detection antibody was added and incubated for 1 hour at room temperature with shaking in the dark. The detection antibody was vacuumed through and 25 ul kit streptavidin—Phycoerythrin was added and incubated in the dark for 15 min with shaking. 25 ul kit amplification buffer was then added and incubated for 15 min with shaking in the dark. The liquid was aspirated using a vacuum manifold, and the beads were resuspended in 150 ul kit assay buffer 2 and mixed on a shaker for 5 minutes before reading the plate.
The plate was read using a Luminex™ 200 instrument and fluorescent signal emitted from the samples was measured, The results of the STAT5 assay are shown in Tables 5 and 6. “Ave” indicates the average fluorescent signal, and “SEM” indicates the standard error of the mean.
Antibodies SS3 and SS1 (hIgG2Δa) were tested using a STAT5 phosphorylation assay. For the STAT5 assay, full-length human GHR overexpressing HEK293 cells or full-length cyno GHR-overexpressing HEK293 cells were cultured, counted by automated cell counter, and seeded in warm freestyle media in 12-well plates (5×10^5 cells/well in 1 ml media). Cells were allowed to settle for 3 hours at 37° C. then treated with 2.5, 5, 50, or 500 nM of SS1 or SS3 in media. […] Cells were incubated with GH at 37° C. with gentle mixing for 10 minutes.
Reagents from Millipore™ MILLIPLEX® MAP Cell Signaling Buffer and Detection Kit (cat, #48-602) were used to lyse and treat the cell pellets. […]

The next assay deals with T1, human GHR (Homo sapiens, UniProt P10912, I544L).
T1 construct: expressed in transfected cells; host or cells: HEK293
T1 sequence (P10912 19-638 I544L): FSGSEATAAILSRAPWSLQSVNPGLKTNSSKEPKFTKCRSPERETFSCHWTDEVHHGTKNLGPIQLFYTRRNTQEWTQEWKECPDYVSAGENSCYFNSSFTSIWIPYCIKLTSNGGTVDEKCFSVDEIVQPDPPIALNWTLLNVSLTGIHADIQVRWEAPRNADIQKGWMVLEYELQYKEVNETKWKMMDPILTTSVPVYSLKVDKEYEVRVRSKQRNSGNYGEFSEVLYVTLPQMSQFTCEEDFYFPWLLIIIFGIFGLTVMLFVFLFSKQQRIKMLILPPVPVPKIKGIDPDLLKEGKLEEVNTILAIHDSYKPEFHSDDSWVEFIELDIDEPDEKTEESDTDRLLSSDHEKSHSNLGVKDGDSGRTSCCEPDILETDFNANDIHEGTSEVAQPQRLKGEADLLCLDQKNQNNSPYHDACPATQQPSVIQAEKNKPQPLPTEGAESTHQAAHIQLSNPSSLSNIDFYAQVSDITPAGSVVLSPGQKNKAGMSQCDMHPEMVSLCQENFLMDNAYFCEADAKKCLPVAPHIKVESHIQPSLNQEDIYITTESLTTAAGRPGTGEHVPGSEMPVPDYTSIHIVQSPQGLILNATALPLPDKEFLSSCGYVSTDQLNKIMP
In words: STAT5 phosphorylation in vitro assay, human GHR-transfected HEK293 cells. Conditions: for fluorescent signal ave (phospho-STAT5): Table 7, human GHR-transfected cells. The format is cell-based. The protocol:
This Example illustrates the effect of GHR antibodies in an in vitro STAT5 phosphorylation assay. In this Example, the ability of GHR antibodies to block GHR downstream signaling was tested in vitro using human GHR overexpressing cells and cyno GHR overexpressing cells. […]
Antibodies SS3 and SS1 (hIgG2Δa) were tested using a STAT5 phosphorylation assay. For the STAT5 assay, full-length human GHR overexpressing HEK293 cells or full-length cyno GHR-overexpressing HEK293 cells were cultured, counted by automated cell counter, and seeded in warm freestyle media in 12-well plates (5×10^5 cells/well in 1 ml media). Cells were allowed to settle for 3 hours at 37° C. then treated with 2.5, 5, 50, or 500 nM of SS1 or SS3 in media.
Millipore™ lysis buffer with 1× protease inhibitor cocktail and sodium orthovanadate was added to each pellet at a volume of 100 ul/pellet Cells were vortexed and incubated for 15 minutes at room temp with occasional vortexing, Millipore™ Assay buffer 2 with 1× protease inhibitor cocktail and 1 mM sodium orthovanadate was then added to the lysates at 200 ul/well.
25 ul/well of sample lysate was added to the wells and the beads and samples were incubated overnight at 4′C with shaking in the dark. […]
The plate was read using a Luminex 200 instrument and florescent signal emitted from the samples was measured.

Results on 3 molecules are retold here after patent publication US9249224B2 (RINAT NEUROSCIENCE CORP., priority 2011, dated 2016).

Structures can show the parent of a compound that is named as a salt. Marks after values point to notes of the source that are not given here.

Protocol for CT26 tumors: The CT26 cell line was used as a syngeneic mouse model of colorectal cancer. Mice were injected with tumor cells and dosed with the Ab11 antibody alone or in combination with iriniotecan.
BALB/c mice (BALB/cAnNCrl) were obtained from Charles River (Hollister, Calif., USA) and maintained in the animal facility at Rinat. […] The mice were housed in microisolators (filter top cages) under pathogen-free conditions with a 12-h light/12-h dark schedule and fed autoclaved standard chow and water throughout the experiment.
Cells were harvested by brief incubation with Accutase (A6964-100ML) (Sigma™ Aldrich, Inc., St. Louis, Mo., USA) and washed in new medium for counting. […]
Mice were dose intraperitoneally (IP) every second to third day. Tumor volume and body weight were measured at least twice a week. […]
The tumors were measured every 2-4 days with a digital caliper (mm). Baseline tumor volumes were calculated using the following formula: V=d2^2×(d½) where d1 was the longest diameter of the tumor and d2 was the perpendicular to d1. At the end of the study, while the study was still blinded, outliers were determined and excluded from all four groups. Tumors that were 3× standard error of the mean < mean and 3× standard error of the mean > mean on all days after day 14 (days 18, 22, 25, and 28) were determined outliers. Tumor weight at the end of the study was also measured.

With `CCc1c2c(nc3ccc(OC(=O)N4CCC(N5CCCCC5)CC4)cc13)-c1cc3c(c(=O)n1C2)COC(=O)[C@]3(O)CC` [Irinotecan, Irinotecan hydrochloride], the results for the “Tumor weight (in grams), mean” value with CT26 tumors and in the assay on CT26 tumors (listed as irinotecan) were 1.2** g and 1.2 g, respectively.

Regarding “GH: growth hormone, added at 4.5 nM to stimulate STAT5 signaling in GHR-transfected cells [reference compound]”, the “fluorescent signal Ave (phospho-STAT5)” value with cyno GHR (Table 6, cyno GHR-transfected cells, 4.5 nM GH alone) is 562. For the same molecule, the “fluorescent signal ave (phospho-STAT5)” value in the assay with cyno GHR (4.5 nM GH alone) came out at 847.

B1: SS3: humanized GHR antagonist antibody; VL SEQ ID NO: 9, VH SEQ ID NO: 10 (antibody, V domains shown)
VH: EVQLVESGGGLVKPGGSLRLSCAASGFTFSDAWMDWVRQAPGKGLEWVAEIRSKANNHATYYAESVKGRFTISRDDSKNTLYLQMNSLKTEDTAVYYCTLFRDYWGQGTLVTVSS
VL: EIVLTQSPGTLSLSPGERATLSCTATSSVSSSYLNWYQQKPGQAPRLLIYSTSNLASGIPDRFSGSGSGTDFTLTISRLEPEDFAVYYCHQYHRFTPTFGGGTKVEIK
modifications: Humanized and/or affinity matured antibody sequence
For the molecule B1, the “fluorescent signal ave (phospho-STAT5)” value is 100 in the assay with human GHR (2.5 nM antibody + 4.5 nM GH); 48 in the assay with human GHR (5 nM antibody + 4.5 nM GH); 0 with human GHR (50 nM antibody + 4.5 nM GH); 0 in the assay with human GHR (500 nM antibody + 4.5 nM GH); 621 with cyno GHR (2.5 nM antibody + 4.5 nM GH); 518 in the assay with cyno GHR (5 nM antibody + 4.5 nM GH). Also, the entries for the “fluorescent signal ave (phospho-STAT5)” value in the assay on cyno GHR (50 nM antibody + 4.5 nM GH) and in the assay on cyno GHR (500 nM antibody + 4.5 nM GH) were 50 and 8, respectively. The “effect on GH-stimulated STAT5 signaling” value with human GHR (cells expressing human GHR, 4.5 nM GH) is on record as “blocked STAT5 signaling in a dose-dependent manner”; with cyno GHR (cells expressing cyno GHR, 4.5 nM GH) it was “blocked STAT5 signaling in a dose-dependent manner”.
